This note sets out measurements from publication PMC9204302, “Novel Pharmacology Following Heteromerization of the Angiotensin II Type 2 Receptor and the Bradykinin Type 2 Receptor” (Frontiers in Endocrinology, 2022).

For assay [1], the target named is B2 receptor tagged with Rluc8 (B2-Rluc8) (human) (UniProt P30411). Nature of the assay: FRET or BRET; BRET1/eBRET in live HEK293FT cells, one BRET-tagged receptor and one BRET-tagged interacting protein coexpressed, no second receptor; ligand-induced BRET after AngII or BK, 37°C.
The target of assay [2] is T1, Venus-tagged B2 receptor (B2-Venus) (human, UniProt P30411 1-391).
T1 construct: made by replacing the Rluc8 coding region of B2-Rluc8 with Venus cDNA; C-terminal end of the tag follows from the parent B2-Rluc8; source: HEK293FT, transiently transfected, in live cells; not shown: Venus, C-terminal, kept
T1 sequence (looked up): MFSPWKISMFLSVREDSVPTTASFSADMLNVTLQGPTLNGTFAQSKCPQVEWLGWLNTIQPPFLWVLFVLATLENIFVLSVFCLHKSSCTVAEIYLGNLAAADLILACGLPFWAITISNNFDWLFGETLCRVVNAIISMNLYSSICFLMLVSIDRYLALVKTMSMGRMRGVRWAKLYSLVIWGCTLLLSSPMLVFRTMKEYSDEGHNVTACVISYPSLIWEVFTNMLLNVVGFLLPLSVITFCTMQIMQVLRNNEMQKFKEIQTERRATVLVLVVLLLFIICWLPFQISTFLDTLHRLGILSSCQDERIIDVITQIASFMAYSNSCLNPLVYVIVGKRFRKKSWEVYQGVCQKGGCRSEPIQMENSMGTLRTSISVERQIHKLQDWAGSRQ
The description is as above. The following applies: partners not purified.

“NES-Venus-mGsq (Venus-tagged mini G protein)” had a pEC50 of BK (ligand-induced BRET) in assay [1] of 7.73.

B1: Rluc8-tagged GRK2 (GRK2-Rluc8) (enzyme, UniProt P25098 1-689, looked up)
chain: MADLEAVLADVSYLMAMEKSKATPAARASKKILLPEPSIRSVMQKYLEDRGEVTFEKIFSQKLGYLLFRDFCLNHLEEARPLVEFYEEIKKYEKLETEEERVARSREIFDSYIMKELLACSHPFSKSATEHVQGHLGKKQVPPDLFQPYIEEICQNLRGDVFQKFIESDKFTRFCQWKNVELNIHLTMNDFSVHRIIGRGGFGEVYGCRKADTGKMYAMKCLDKKRIKMKQGETLALNERIMLSLVSTGDCPFIVCMSYAFHTPDKLSFILDLMNGGDLHYHLSQHGVFSEADMRFYAAEIILGLEHMHNRFVVYRDLKPANILLDEHGHVRISDLGLACDFSKKKPHASVGTHGYMAPEVLQKGVAYDSSADWFSLGCMLFKLLRGHSPFRQHKTKDKHEIDRMTLTMAVELPDSFSPELRSLLEGLLQRDVNRRLGCLGRGAQEVKESPFFRSLDWQMVFLQKYPPPLIPPRGEVNAADAFDIGSFDEEDTKGIKLLDSDQELYRNFPLTISERWQQEVAETVFDTINAETDRLEARKKAKNKQLGHEEDYALGKDCIMHGYMSKMGNPFLTQWQRRYFYLFPNRLEWRGEGEAPQSLLTMEEIQSVEETQIKERKCLLLKIRGGKQFILQCDSDPELVQWKKELRDAYREAQQLVQRVPKMKNKPRSPVVELSKVPLVQRGSANGL
notes: GPCR kinase 2 (GRK2); construct synthesized by GeneArt; also called GPCR kinase 2; source: HEK293FT, transiently transfected, in live cells
On to B1, for which the “pEC50 of BK (ligand-induced BRET)” value in assay [2] came to 7.35.
